# According to the supplement of paper PMC9112550, “Optimization of the antimicrobial peptide Bac7 by deep mutational scanning” (BMC Biology, 2022):
# System: Escherichia coli TOP10
# Test: shrunken log2 fold change of peptide-encoding DNA abundance (4.5 h post-induction vs induction); higher = less antimicrobial activity (less host growth inhibition)
# Conditions: time post-induction: 4.5 h; library: site-saturation at positions 5, 18, 19, 20
# 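Note: peptides expressed intracellularly from a pBAD plasmid library in pooled LB shake-flask culture, induced with 0.3% L-arabinose, DNA abundance read by NGS, three biological replicates, DESeq2 with apeglm shrinkage.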
row,Sequence,shrunken log2 fold change
1,RRIRQRPPRLPRPRPRPWNTPRP,-0.169
2,RRIRTRPPRLPRPRPRPTWRPRP,0.233
3,RRIRARPPRLPRPRPRPSEFPRP,0.00109
4,RRIRLRPPRLPRPRPRPQQPPRP,-0.208
5,RRIRLRPPRLPRPRPRPNWHPRP,-0.0136
6,RRIRHRPPRLPRPRPRPTFPPRP,0.145
7,RRIRYRPPRLPRPRPRPPNWPRP,-0.00249
8,RRIRRRPPRLPRPRPRPWCEPRP,-0.0981
9,RRIRMRPPRLPRPRPRPQAWPRP,-0.0331
10,RRIRQRPPRLPRPRPRPGMAPRP,0.0366
11,RRIRCRPPRLPRPRPRPCMSPRP,-0.185
12,RRIRHRPPRLPRPRPRPWFSPRP,-0.294
13,RRIRRRPPRLPRPRPRPMRKPRP,0.58
14,RRIRTRPPRLPRPRPRPVLYPRP,-0.365
15,RRIRSRPPRLPRPRPRPNWAPRP,0.64
16,RRIRHRPPRLPRPRPRPWWTPRP,0.00261
17,RRIRNRPPRLPRPRPRPCVKPRP,-0.13
18,RRIRNRPPRLPRPRPRPRPDPRP,0.0914
19,RRIRMRPPRLPRPRPRPYMDPRP,0.000784
20,RRIRIRPPRLPRPRPRPSWHPRP,-0.707
21,RRIRVRPPRLPRPRPRPRWDPRP,0.193
22,RRIRFRPPRLPRPRPRPAKEPRP,0.0148
23,RRIRFRPPRLPRPRPRPPTVPRP,0.499
24,RRIRKRPPRLPRPRPRPNAWPRP,0.0867
25,RRIRWRPPRLPRPRPRPQHRPRP,0.25

row,Sequence,shrunken log2 fold change
1,RRIRSRPPRLPRPRPRPQTHPRP,0.901
2,RRIRARPPRLPRPRPRPEVFPRP,0.401
3,RRIRCRPPRLPRPRPRPDYDPRP,0.0933
4,RRIRYRPPRLPRPRPRPQCYPRP,-0.0301
5,RRIRARPPRLPRPRPRPMGWPRP,0.468
6,RRIRNRPPRLPRPRPRPVCIPRP,-0.215
7,RRIRPRPPRLPRPRPRPQACPRP,-0.0282
8,RRIRARPPRLPRPRPRPMLWPRP,0.183
9,RRIRLRPPRLPRPRPRPLHWPRP,1.5
10,RRIRFRPPRLPRPRPRPNAVPRP,-0.0327
11,RRIRLRPPRLPRPRPRPVNMPRP,-0.306
12,RRIRQRPPRLPRPRPRPFAEPRP,-0.00183
13,RRIRVRPPRLPRPRPRPFWWPRP,0.343
14,RRIRDRPPRLPRPRPRPLIYPRP,-0.653
15,RRIRNRPPRLPRPRPRPVTIPRP,-0.463
16,RRIRRRPPRLPRPRPRPELKPRP,0.254
17,RRIRFRPPRLPRPRPRPAMQPRP,0.109
18,RRIRRRPPRLPRPRPRPWCHPRP,-0.0754
19,RRIRGRPPRLPRPRPRPPWHPRP,0.396
20,RRIRSRPPRLPRPRPRPILRPRP,-0.0847
21,RRIRNRPPRLPRPRPRPGTMPRP,0.0148
22,RRIRERPPRLPRPRPRPFIDPRP,-0.288
23,RRIRGRPPRLPRPRPRPAPCPRP,0.426
24,RRIRIRPPRLPRPRPRPDAFPRP,-0.15
25,RRIRLRPPRLPRPRPRPNWAPRP,-0.00149

row,Sequence,shrunken log2 fold change
1,RRIRIRPPRLPRPRPRPCIMPRP,-0.466
2,RRIRLRPPRLPRPRPRPAEKPRP,-0.0786
3,RRIRDRPPRLPRPRPRPLQEPRP,0.223
4,RRIRQRPPRLPRPRPRPCGGPRP,0.257
5,RRIRVRPPRLPRPRPRPTRAPRP,0.665
6,RRIRMRPPRLPRPRPRPGGWPRP,1.32
7,RRIRGRPPRLPRPRPRPKDRPRP,0.89
8,RRIRTRPPRLPRPRPRPLKCPRP,-0.249
9,RRIRCRPPRLPRPRPRPLFVPRP,-0.482
10,RRIRHRPPRLPRPRPRPHPWPRP,-0.0988
11,RRIRRRPPRLPRPRPRPSYPPRP,-0.115
12,RRIRYRPPRLPRPRPRPYHAPRP,-0.194
13,RRIRCRPPRLPRPRPRPFQRPRP,-0.418
14,RRIRMRPPRLPRPRPRPYMPPRP,-0.312
15,RRIRVRPPRLPRPRPRPNENPRP,-0.349
16,RRIRFRPPRLPRPRPRPDTEPRP,-0.776
17,RRIRTRPPRLPRPRPRPMIHPRP,-0.609
18,RRIRKRPPRLPRPRPRPTRGPRP,0.857
19,RRIRARPPRLPRPRPRPEVHPRP,3.57
20,RRIRQRPPRLPRPRPRPQDIPRP,0.0203
21,RRIRERPPRLPRPRPRPVGSPRP,-0.174
22,RRIRPRPPRLPRPRPRPYLEPRP,-0.634
23,RRIRRRPPRLPRPRPRPNGEPRP,0.43
24,RRIRTRPPRLPRPRPRPEFMPRP,0.0647
25,RRIRRRPPRLPRPRPRPQMHPRP,0.354

row,Sequence,shrunken log2 fold change
1,RRIRRRPPRLPRPRPRPKQRPRP,0.288
2,RRIRRRPPRLPRPRPRPWAEPRP,2.36
3,RRIRFRPPRLPRPRPRPMIDPRP,-0.209
4,RRIRLRPPRLPRPRPRPTWSPRP,0.201
5,RRIRSRPPRLPRPRPRPPEPPRP,0.373
6,RRIRARPPRLPRPRPRPWDIPRP,0.173
7,RRIRNRPPRLPRPRPRPKETPRP,-0.0238
8,RRIRKRPPRLPRPRPRPFISPRP,-0.113
9,RRIRWRPPRLPRPRPRPNMCPRP,-0.0387
10,RRIRPRPPRLPRPRPRPALVPRP,0.181
11,RRIRHRPPRLPRPRPRPWYWPRP,-0.115
12,RRIRYRPPRLPRPRPRPTNLPRP,-0.661
13,RRIRARPPRLPRPRPRPTWQPRP,0.4
14,RRIRRRPPRLPRPRPRPLAPPRP,0.399
15,RRIRFRPPRLPRPRPRPFPTPRP,-0.0582
16,RRIRKRPPRLPRPRPRPKEPPRP,0.074
17,RRIRGRPPRLPRPRPRPCRCPRP,0.107
18,RRIRWRPPRLPRPRPRPMSYPRP,-0.206
19,RRIRPRPPRLPRPRPRPWFLPRP,-0.458
20,RRIRERPPRLPRPRPRPPINPRP,-0.224
21,RRIRDRPPRLPRPRPRPDWPPRP,-0.0123
22,RRIRQRPPRLPRPRPRPMHRPRP,-0.0558
23,RRIRTRPPRLPRPRPRPSKYPRP,0.557
24,RRIRWRPPRLPRPRPRPTAEPRP,1.76
25,RRIRFRPPRLPRPRPRPPPDPRP,1.3

row,Sequence,shrunken log2 fold change
1,RRIRIRPPRLPRPRPRPYAEPRP,-0.844
2,RRIRNRPPRLPRPRPRPILHPRP,-0.684
3,RRIRWRPPRLPRPRPRPSRNPRP,-0.0585
4,RRIRMRPPRLPRPRPRPHVAPRP,0.00497
5,RRIRDRPPRLPRPRPRPAIHPRP,0.00344
6,RRIRHRPPRLPRPRPRPVRWPRP,0.98
7,RRIRWRPPRLPRPRPRPQSNPRP,-0.124
8,RRIRARPPRLPRPRPRPGWGPRP,0.463
9,RRIRSRPPRLPRPRPRPCPCPRP,-0.138
10,RRIRPRPPRLPRPRPRPWIFPRP,-0.0541
11,RRIRNRPPRLPRPRPRPCACPRP,-0.0293
12,RRIRSRPPRLPRPRPRPQKKPRP,-0.0597
13,RRIRTRPPRLPRPRPRPRPTPRP,0.626
14,RRIRFRPPRLPRPRPRPILGPRP,0.0151
15,RRIRMRPPRLPRPRPRPMITPRP,-0.0461
16,RRIRARPPRLPRPRPRPCICPRP,-0.0352
17,RRIRKRPPRLPRPRPRPYFRPRP,0.123
18,RRIRLRPPRLPRPRPRPPMYPRP,-0.093
19,RRIRRRPPRLPRPRPRPEQPPRP,0.389
20,RRIRKRPPRLPRPRPRPCVSPRP,-0.376
21,RRIRERPPRLPRPRPRPGWYPRP,-0.0987
22,RRIRFRPPRLPRPRPRPTELPRP,-0.161
23,RRIRYRPPRLPRPRPRPSWNPRP,-1.04
24,RRIRIRPPRLPRPRPRPKLYPRP,-0.33
25,RRIRIRPPRLPRPRPRPFLIPRP,-0.606

row,Sequence,shrunken log2 fold change
1,RRIRCRPPRLPRPRPRPIVLPRP,-0.456
2,RRIRLRPPRLPRPRPRPTLEPRP,-0.244
3,RRIRTRPPRLPRPRPRPVENPRP,-0.146
4,RRIRSRPPRLPRPRPRPNLYPRP,-0.167
5,RRIRNRPPRLPRPRPRPYWQPRP,-0.215
6,RRIRHRPPRLPRPRPRPCIFPRP,-0.597
7,RRIRGRPPRLPRPRPRPQHYPRP,-0.167
8,RRIRARPPRLPRPRPRPPNNPRP,0.0107
9,RRIRGRPPRLPRPRPRPWHQPRP,1.75
10,RRIRPRPPRLPRPRPRPSNWPRP,-0.184
11,RRIRQRPPRLPRPRPRPSYRPRP,-0.0524
12,RRIRHRPPRLPRPRPRPNHCPRP,-0.0509
13,RRIRIRPPRLPRPRPRPYASPRP,-0.206
14,RRIRNRPPRLPRPRPRPEPMPRP,0.132
15,RRIRVRPPRLPRPRPRPYCLPRP,-0.564
16,RRIRIRPPRLPRPRPRPDKRPRP,-0.0405
17,RRIRIRPPRLPRPRPRPYMIPRP,-0.307
18,RRIRQRPPRLPRPRPRPSIQPRP,-0.13
19,RRIRHRPPRLPRPRPRPVKEPRP,-0.00992
20,RRIRCRPPRLPRPRPRPCRAPRP,-0.0671
21,RRIRLRPPRLPRPRPRPNSRPRP,-0.0164
22,RRIRLRPPRLPRPRPRPTVQPRP,-0.191
23,RRIRIRPPRLPRPRPRPYLGPRP,-0.279
24,RRIRARPPRLPRPRPRPRIIPRP,0.093
25,RRIRMRPPRLPRPRPRPFTSPRP,-0.0967
